What is called Kd is the constant that tells how readily two partners part at equilibrium. A high value points to weaker binding.

Some targets named below: bRSV ATue51908 postF (bovine respiratory syncytial virus, …, UniProt P22167 26-109; P22167 147-513); bRSV ATue51908 DSCav1 (bovine respiratory syncytial virus, …, UniProt P22167 26-109); bRSV 391-2 postF (bovine respiratory syncytial virus, …, UniProt P22167 26-109; P22167 147-513); bRSV RB94 postF (bovine respiratory syncytial virus, …, UniProt P23728 26-109; P23728 147-513); bRSV 391-2 DSCav1 (bovine respiratory syncytial virus, …, UniProt P22167 26-109).

What all share (test): biolayer interferometry (Octet), variant on Ni-NTA tip, Fab in solution
The target of test [1] is bRSV 391-2 sc9-10 DS-Cav1 Q98C-Q361C (bovine respiratory syncytial virus, …).
For test [2], the target named is bRSV ATue51908 sc9-10 DS-Cav1 A149C-Y458C (bovine respiratory syncytial virus, …).
Test [3] concerns the target bRSV 391-2 sc9 DS-Cav1 Q98C-Q361C (bovine respiratory syncytial virus, …).

B1: AM14 Fab (Fab, V domains shown)
VH: EVQLVESGGGVVQPGRSLRLSCAASGFSFSHYAMHWVRQAPGKGLEWVAVISYDGENTYYADSVKGRFSISRDNSKNTVSLQMNSLRPEDTALYYCARDRIVDDYYYYGMDVWGQGATVTVSS
VL: DIQMTQSPSSLSASVGDRVTITCQASQDIKKYLNWYHQKPGKVPELLMHDASNLETGVPSRFSGRGSGTDFTLTISSLQPEDIGTYYCQQYDNLPPLTFGGGTKVEIKR
notes: also called mAb AM14
B1: the equilibrium dissociation constant (Kd) in the test with bRSV ATue51908 postF is greater than 1000 nM; in the test with bRSV ATue51908 DSCav1, 4.8 nM; in test [1], 12.8 nM; in test [2], 12.8 nM; with bRSV 391-2 postF it was greater than 1000 nM; with bRSV RB94 postF, greater than 1000 nM. The Kd with bRSV 391-2 DSCav1 was determined as 1.8 nM; in test [3], 8.6 nM.

B2: MPE8 Fab (Fab, V domains shown)
VH: EVQLVESGGGLVKPGGSLRLSCAASGFTFSSYSMNWVRQAPGKGLEWVSSISASSSYSDYADSAKGRFTISRDNAKTSLFLQMNSLRAEDTAIYFCARARATGYSSITPYFDIWGQGTLVTVSS
VL: QSVVTQTPSVSGAPGQRVTISCTGSSSNIGAGYDVHWYQQLPGTAPKLLIYDNNNRPSGVPDRFSASKSGTSASLAITGLQAEDEADYYCQSYDRNLSGVFGTGTKVTVL
notes: also called mAb MPE8
As for B2, the Kd in the test with bRSV 391-2 postF and with bRSV RB94 postF was greater than 1000 nM each time.

B3: D25 Fab (Fab, V domains shown)
VH: QVQLVQSGAEVKKPGSSVMVSCQASGGPLRNYIINWLRQAPGQGPEWMGGIIPVLGTVHYAPKFQGRVTITADESTDTAYIHLISLRSEDTAMYYCATETALVVSTTYLPHYFDNWGQGTLVTVSS
VL: DIQMTQSPSSLSAAVGDRVTITCQASQDIVNYLNWYQQKPGKAPKLLIYVASNLETGVPSRFSGSGSGTDFSLTISSLQPEDVATYYCQQYDNLPLTFGGGTKVEIK
notes: also called mAb D25
With B3, the Kd was determined as 10.8 nM with bRSV ATue51908 DSCav1 and 420 nM in test [2].

The values above are taken from US20190330277A1 (PIRBRIGHT INSTITUTE, published 2019).
